These results are taken from PMC3353271.

This assay concerns the target S. cerevisiae enolase (S. cerevisiae (endogenous in strain R11258)) (UniProt P00925). Briefly: SEC. In general terms: Size exclusion chromatography separates by hydrodynamic size, large species first.

By stoichiometry N is commonly meant a count of units in the complex or per binding partner. In turn, “S. cerevisiae enolase (from UniProt P00925 1-437) (enzyme)” yielded a stoichiometry N of 2.
